Source: the supplement of paper PMC12338614
± gives the uncertainty stated by the source.

B1: library; numbered along this chain (parent)
chain: MEVVDPQQLGMFTEGELMSVGMDTFIHRIDSTEVIYQPRRKRAKLIGKYLMGDLLGEGSYGKVKEVLDSETLCRRAVKILKKKKLRRIPNGEANVKKEIQLLRRLRHKNVIQLVDVLYNEEKQKMYMVMEYCVCGMQEMLDSVPEKRFPVCQAHGYFCQLIDGLEYLHSQGIVHKDIKPGNLLLTTGGTLKISDLGVAEALHPFAADDTCRTSQGSPAFQPPEIANGLDTFSGFKVDIWSAGVTLYNITTGLYPFEGDNIYKLFENIGKGSYAIPGDCGPPLSDLLKGMLEYEPAKRFSIRQIRQHSWFRKKHPPAEAPVPIPPSPDTKDRWRSMTVVPYLEDLHGADEDEDLFDIEDDIIYTQDFTVPGQVPEEEASHNGQRRGLPKAVCMNGTEAAQLSTKSRAEGRAPNPARKACSASSKIRRLSACKQQ

Variants of: B1
Test: STK11 functional score (HeLa growth suppression), rescaled enrichment; synonymous median = 1, nonsense median = 0 (normalised score)
Details: with HeLa; variant type: missense
Procedure, shortened: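 In HeLa, Bxb1 integrated POPCode codon-randomised libraries of codon-optimised STK11 at an AAVS1 landing pad; three regions were each transfected three times. Integrants, marked as BFP-negative and mCherry-positive, were FACS-sorted 4–5 days after electroporation and expanded for about two weeks before tiled gDNA amplicons were sequenced on NextSeq (~2 million reads per tile). Each functional score is a post/pre-selection log ratio corrected to wild type, rescaled to the synonymous and nonsense medians, and merged across codons and replicate transfections, with error estimated by bootstrapping.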

In order of falling STK11 functional score:
1. C73M  1.7 ± 0.41
2. C151K  1.67 ± 0.32
3. P217W  1.66 ± 0.13
4. Y292M  1.64 ± 0.31
5. A414W  1.63 ± 0.15
6. P314M  1.62 ± 0.15
7. C418Y  1.6 ± 0.17
8. A377R  1.6 ± 0.26
9. C73T  1.6 ± 0.45
10. D327P  1.59 ± 0.27
11. D208R  1.59 ± 0.26
12. P373N  1.59 ± 0.28
13. Y60W  1.58 ± 0.15
14. C418T  1.58 ± 0.15
15. A43L  1.58 ± 0.34
16. D208Q  1.58 ± 0.3
17. D358L  1.56 ± 0.17
18. Y253V  1.56 ± 0.22
19. V320A  1.55 ± 0.2
20. D327L  1.55 ± 0.21
21. P89M  1.55 ± 0.16
22. C430G  1.55 ± 0.19
23. D284R  1.55 ± 0.36
24. A389L  1.54 ± 0.16
25. D359L  1.53 ± 0.17
26. E375P  1.53 ± 0.29
27. A398K  1.53 ± 0.22
28. E317A  1.53 ± 0.22
29. A420G  1.52 ± 0.26
30. L72D  1.51 ± 0.45
31. T24Y  1.49 ± 0.37
32. A377Y  1.49 ± 0.16
33. F298D  1.48 ± 0.12
34. D330S  1.47 ± 0.28
35. K416Q  1.46 ± 0.38
36. C151Y  1.45 ± 0.41
37. Q302A  1.45 ± 0.33
38. R87I  1.45 ± 0.17
39. K423L  1.45 ± 0.52
40. T402W  1.44 ± 0.23
41. A397E  1.44 ± 0.2
42. T24G  1.43 ± 0.13
43. T209V  1.42 ± 0.31
44. T367W  1.4 ± 0.32
45. Q364P  1.4 ± 0.27
46. R409K  1.39 ± 0.36
47. T230R  1.39 ± 0.35
48. E349S  1.38 ± 0.28
49. N94R  1.37 ± 0.14
50. R310F  1.35 ± 0.15
51. K311G  1.35 ± 0.23
52. Q214D  1.33 ± 0.23
53. Q364L  1.33 ± 0.24
54. A316I  1.32 ± 0.3
55. P315R  1.32 ± 0.17
56. R405C  1.3 ± 0.34
57. Y340S  1.3 ± 0.28
58. V128N  1.28 ± 0.32
59. Q170V  1.26 ± 0.37
60. K311I  1.26 ± 0.24
61. H313M  1.25 ± 0.59
62. K423I  1.25 ± 0.18
63. Y49I  1.24 ± 0.13
64. G370D  1.24 ± 0.39
65. Y60I  1.23 ± 0.3
66. D53H  1.23 ± 0.18
67. A43F  1.23 ± 0.18
68. V20I  1.22 ± 0.31
69. T24C  1.22 ± 0.12
70. I322S  1.21 ± 0.24
71. L183V  1.2 ± 0.18
72. Q382E  1.2 ± 0.43
73. Q220C  1.18 ± 0.45
74. M51I  1.16 ± 0.4
75. Y261P  1.15 ± 0.38
76. Q302F  1.14 ± 0.5
77. A273R  1.13 ± 0.38
78. G56E  1.13 ± 0.098
79. R39H  1.13 ± 0.23
80. T212I  1.13 ± 0.55
81. A398F  1.12 ± 0.42
82. I360S  1.11 ± 0.38
83. D358G  1.08 ± 0.14
84. V3I  1.06 ± 0.43
85. K311Y  1.06 ± 0.41
86. S240G  1.05 ± 0.16
87. L263E  1.04 ± 0.17
88. M125G  1.03 ± 0.16
89. E92V  1.02 ± 0.09
90. Y49W  1.01 ± 0.096
91. T250A  1.01 ± 0.11
92. A398V  1.01 ± 0.2
93. Y118S  0.99 ± 0.1
94. E349F  0.989 ± 0.64
95. D352A  0.984 ± 0.58
96. Q100F  0.976 ± 0.19
97. C210S  0.964 ± 0.59
98. S193C  0.963 ± 0.17
99. T71N  0.961 ± 0.15
100. E357W  0.957 ± 0.15
101. E223D  0.948 ± 0.23
102. A397K  0.947 ± 0.67
103. D284L  0.935 ± 0.21
104. T212M  0.927 ± 0.094
105. Q170S  0.916 ± 0.13
106. C151W  0.903 ± 0.12
107. V337Y  0.9 ± 0.57
108. I361G  0.895 ± 0.29
109. S240A  0.891 ± 0.13
110. F298W  0.876 ± 0.092
111. A43G  0.859 ± 0.32
112. M51S  0.844 ± 0.24
113. K287Y  0.843 ± 0.36
114. S240D  0.841 ± 0.36
115. N247V  0.824 ± 0.1
116. A218G  0.816 ± 0.14
117. E33S  0.81 ± 0.15
118. M51L  0.806 ± 0.15
119. F219S  0.778 ± 0.18
120. P89R  0.754 ± 0.1
121. Q220L  0.714 ± 0.12
122. S169L  0.7 ± 0.33
123. R106G  0.687 ± 0.11
124. T32Y  0.666 ± 0.85
125. L72M  0.649 ± 0.15
126. K178L  0.63 ± 0.1
127. Q159K  0.6 ± 0.18
128. G135W  0.571 ± 0.6
129. C73I  0.566 ± 0.1
130. P179S  0.562 ± 0.19
131. T367K  0.53 ± 0.42
132. L282W  0.522 ± 0.086
133. Y131C  0.51 ± 0.24
134. G196A  0.488 ± 0.5
135. L113V  0.44 ± 0.1
136. T244K  0.388 ± 0.12
137. G58C  0.374 ± 0.095
138. R304I  0.364 ± 0.3
139. G288F  0.357 ± 0.18
140. F255N  0.322 ± 0.14
141. S271P  0.317 ± 0.1
142. S69H  0.304 ± 0.095
143. T249G  0.293 ± 0.1
144. V236L  0.273 ± 0.21
145. P89G  0.213 ± 0.086
146. D53W  0.204 ± 0.082
147. E223I  0.17 ± 0.24
148. E223G  0.169 ± 0.077
149. H306P  0.114 ± 0.26
150. T249W  0.0979 ± 0.1
151. L182W  0.0906 ± 0.12
152. S216L  0.0797 ± 0.09
153. D284P  0.0198 ± 0.1
154. K178E  -0.00538 ± 0.11
155. A377E  -0.00596 ± 0.15
156. L140Y  -0.0286 ± 0.081
157. G242Y  -0.0296 ± 0.066
158. L140F  -0.0987 ± 0.078
159. S193R  -0.142 ± 0.11
160. T244E  -0.168 ± 0.099
161. I260E  -0.179 ± 0.42
162. G242I  -0.186 ± 0.099
163. R297W  -0.193 ± 0.083
164. G58Y  -0.201 ± 0.096
165. A153W  -0.261 ± 0.095
166. R297K  -0.29 ± 0.13
167. H306W  -0.368 ± 0.084
